Molecular target: human EGF receptor 1 (human, UniProt P00533 25-1210)
Assay: cell-based or functional assay

B1: Ex3 scFv-Fc, IgG-type bispecific antibody of OHL-Fc and 5HL-CL (bispecific antibody)
heavy: not shown
light: QVQLVQSGAEVKKPGASVKVSCKASGYTFTSYWMHWVRQAPGQGLEWMGNIYPGSGGTNYAEKFKNRVTMTRDTSISTAYMELSRLRSDDTAVYYCARSGGPYFFDYWGQGTLVTVSSAGGGGSGGGGSGGGGSDIVMTQSPLSLPVTPGEPASISCRSSQNIVHNNGITYLEWYLQKPGQSPQLLIYKVSDRFSGVPDRFSGSGSGTDFTLKISRVEAEDVGVYYCFQGSHIPPTFGQGTKVEIKRTVAAPSVFIFPPSDEQLKSGTASVVCLLNNFYPREAKVQWKVDNALQSGNSQESVTEQDSKDSTYSLSSTLTLSKADYEKHKVYACEVTHQGLSSPVTKSFNRGEC
cytotoxicity, 51Cr release assay (Colo-Tc, EGFR/CHO and CHO cells): ~0.002 fold of the concentration of Ex3
